The results in this text go back to paper PMC7393678, “First Evidence of Acyl-Hydrolase/Lipase Activity From Human Probiotic Bacteria: Lactobacillus rhamnosus GG and Bifidobacterium longum NCC 2705” (Frontiers in Microbiology, 2020).

Series [1] deals with T1, LrLyp.
T1 construct: C-terminal His6 (pET21b); E. coli; probably monomer
Description: p-nitrophenol release at […] nm, initial rates, substrate inhibition model. The class given is biochemical, Lacticaseibacillus rhamnosus. The conditions noted are these: substrate inhibition constant, second site; pH 7, 37°C, 20 mM McIlvaine buffer, substrate 0.1-9 mM.

Series [2] deals with T1, LrLyp. The description is as above. The series is classed as biochemical, Lacticaseibacillus rhamnosus. The conditions noted are these: pH 7, 37°C, 20 mM McIlvaine buffer, substrate 0.1-9 mM from DMSO/Triton X-100 stock; apparent constant from substrate inhibition fit; read-out: KMapp.
Substrate in series [3]: CCCCCCCCCCCC(=O)Oc1ccc([N+](=O)[O-])cc1
Description: purified protein. The series is classed as biochemical, Bifidobacterium longum. The conditions noted are these: pH 7, 37°C, 20 mM McIlvaine buffer, substrate 0.1-9 mM from DMSO/Triton X-100 stock, apparent constant.

In the case of `CCCCCCCCCCCC(=O)Oc1ccc([N+](=O)[O-])cc1` [pNP-laurate], the “KIapp” value in series [1] worked out at 1.57 mM. The Km in series [2] came out at 11.4 mM.

B1: BlLyp (Bifidobacterium longum NCC2705) (protein)
chain: PPDNRRVSRLIRHTGKGLSGSFPFCSCRSWAKVGVFALPNPPLKGPVVMPINEALFAAMKAASYIKPNAGKSYKLQRVAEELIAKQAPANPKCRVEDAFAPMADGYAVPLRVFTPLVAYGAPLPEALEESSANGTPVASAISAILPAVLPKVLPKILIKESTSSGNADGISGNANTELPSVTPRGTILFFHGGGWTTGGINLYTQACAHMAVRLQRRVISVEYRLAPEYRFPTAVEDCYEVARQLFAGELPISGVGGSVDVDHPQSAAPTAPAGGGDISATIPAPDPDSIVLFGDSAGGNLAAAVSLMARDRGEFMPRTQMLLYPVVGNDYNPETSPFESVRTNGTDYILTAQDMADYIDMYRSSVADLTNPYFAPLTAHDLSNQPRTLVLSAEYCPLRDEDEAYARRLQLVNDNVSCYRIHDGIHGYLLNTSAVGLVATTYRIIEHFLDGTPLEPAPGTGTTANAPEGGDAWQDVLGTD
notes: C-terminal His6 (pET21b); E. coli; monomer at pH 7
Turning to B1, in series [3], the Km was 2.56 mM; the maximal velocity (Vmax) (commonly the rate approached at saturating substrate) is 0.05 µmol/min/mg; the kcat – broadly, the number of substrate molecules converted per active site and unit of time at saturation – is 0.04 s⁻¹; the kcat/Km (commonly the turnover number divided by the Michaelis constant) amounted to 16 M⁻¹ s⁻¹.
